The supplement of paper PMC9112550, “Optimization of the antimicrobial peptide Bac7 by deep mutational scanning” (BMC Biology, 2022)
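Also: peptides expressed intracellularly from a pBAD plasmid library in pooled LB shake-flask culture, induced with 0.3% L-arabinose, DNA abundance read by NGS, three biological replicates, DESeq2 with apeglm shrinkage.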

These sequences were tested on Escherichia coli TOP10 (assay: shrunken log2 fold change of peptide-encoding DNA abundance (4.5 h post-induction vs induction); higher = less antimicrobial activity (less host growth inhibition)). Settings: time post-induction: 4.5 h; library: site-saturation at positions 5, 18, 19, 20.
In the case of RRIRWRPPRLPRPRPRPDPRPRP, the “shrunken log2 fold change” value is reported as 0.751. In the case of RRIRSRPPRLPRPRPRPPKHPRP, the “shrunken log2 fold change” value is reported as 0.2. In the case of RRIRERPPRLPRPRPRPCITPRP, the “shrunken log2 fold change” value is reported as -0.395. RRIRERPPRLPRPRPRPASWPRP was tested, and the “shrunken log2 fold change” value was 0.0747. For RRIRSRPPRLPRPRPRPQMMPRP, the “shrunken log2 fold change” value was -0.143. For RRIRARPPRLPRPRPRPKHFPRP, the “shrunken log2 fold change” value was 4.03. With RRIRLRPPRLPRPRPRPSIHPRP the “shrunken log2 fold change” value was -0.619. For RRIRNRPPRLPRPRPRPGMIPRP, the “shrunken log2 fold change” value was 0.00966. RRIRVRPPRLPRPRPRPQSTPRP was tested, and the “shrunken log2 fold change” value was 0.00487. With RRIRPRPPRLPRPRPRPFHGPRP the “shrunken log2 fold change” value was -0.252. With RRIRVRPPRLPRPRPRPGSEPRP the “shrunken log2 fold change” value was 0.168. With RRIRYRPPRLPRPRPRPLYYPRP the “shrunken log2 fold change” value was -1.44. For RRIRLRPPRLPRPRPRPADLPRP, the “shrunken log2 fold change” value was 0.0231. RRIRMRPPRLPRPRPRPMTQPRP was tested, and the “shrunken log2 fold change” value was 0.22. For RRIRQRPPRLPRPRPRPWIQPRP, the “shrunken log2 fold change” value was -0.251. With RRIRDRPPRLPRPRPRPFKVPRP the “shrunken log2 fold change” value was -0.0463. RRIRKRPPRLPRPRPRPTLRPRP was tested, and the “shrunken log2 fold change” value was 1.01. RRIRGRPPRLPRPRPRPYSNPRP was tested, and the “shrunken log2 fold change” value was 0.0659. With RRIRVRPPRLPRPRPRPSSYPRP the “shrunken log2 fold change” value was -0.139. In the case of RRIRVRPPRLPRPRPRPHSKPRP, the “shrunken log2 fold change” value is reported as -0.496. For RRIRTRPPRLPRPRPRPPKHPRP, the “shrunken log2 fold change” value was 0.157. For RRIRHRPPRLPRPRPRPPMHPRP, the “shrunken log2 fold change” value was -0.0169. In the case of RRIRARPPRLPRPRPRPSRCPRP, the “shrunken log2 fold change” value is reported as 0.228. For RRIRARPPRLPRPRPRPYQHPRP, the “shrunken log2 fold change” value was -0.272. With RRIRQRPPRLPRPRPRPVHSPRP the “shrunken log2 fold change” value was -0.0049. In the case of RRIRSRPPRLPRPRPRPYMHPRP, the “shrunken log2 fold change” value is reported as -0.395. RRIRGRPPRLPRPRPRPTMRPRP was tested, and the “shrunken log2 fold change” value was 1.44. For RRIRMRPPRLPRPRPRPHSHPRP, the “shrunken log2 fold change” value was 0.0536. In the case of RRIRLRPPRLPRPRPRPEVDPRP, the “shrunken log2 fold change” value is reported as -0.0786. For RRIRFRPPRLPRPRPRPCQDPRP, the “shrunken log2 fold change” value was -0.148. In the case of RRIRARPPRLPRPRPRPNMAPRP, the “shrunken log2 fold change” value is reported as 0.114. For RRIRRRPPRLPRPRPRPDTCPRP, the “shrunken log2 fold change” value was 0.133. For RRIRVRPPRLPRPRPRPHAYPRP, the “shrunken log2 fold change” value was -0.473. With RRIRIRPPRLPRPRPRPVNPPRP the “shrunken log2 fold change” value was 1.75. With RRIRVRPPRLPRPRPRPEFPPRP the “shrunken log2 fold change” value was -0.081. In the case of RRIRARPPRLPRPRPRPMYRPRP, the “shrunken log2 fold change” value is reported as -0.0452. With RRIRLRPPRLPRPRPRPLYQPRP the “shrunken log2 fold change” value was -0.833. With RRIRHRPPRLPRPRPRPDIIPRP the “shrunken log2 fold change” value was -0.0233. For RRIRGRPPRLPRPRPRPFYCPRP, the “shrunken log2 fold change” value was -0.0638. With RRIRLRPPRLPRPRPRPWETPRP the “shrunken log2 fold change” value was 0.0162. In the case of RRIRNRPPRLPRPRPRPLPTPRP, the “shrunken log2 fold change” value is reported as -0.0778. For RRIRTRPPRLPRPRPRPDCLPRP, the “shrunken log2 fold change” value was -0.0333. For RRIRTRPPRLPRPRPRPEDRPRP, the “shrunken log2 fold change” value was 0.0062. In the case of RRIRARPPRLPRPRPRPVQRPRP, the “shrunken log2 fold change” value is reported as 0.615. With RRIRCRPPRLPRPRPRPKDHPRP the “shrunken log2 fold change” value was 0.0424. In the case of RRIRGRPPRLPRPRPRPILDPRP, the “shrunken log2 fold change” value is reported as 0.277. In the case of RRIRKRPPRLPRPRPRPLPIPRP, the “shrunken log2 fold change” value is reported as 0.143. With RRIRFRPPRLPRPRPRPLQEPRP the “shrunken log2 fold change” value was -0.203. In the case of RRIRFRPPRLPRPRPRPYNGPRP, the “shrunken log2 fold change” value is reported as -1.47. With RRIRKRPPRLPRPRPRPNPPPRP the “shrunken log2 fold change” value was 0.0342. In the case of RRIRVRPPRLPRPRPRPWFIPRP, the “shrunken log2 fold change” value is reported as -0.329. In the case of RRIRWRPPRLPRPRPRPKDDPRP, the “shrunken log2 fold change” value is reported as 0.553. With RRIRHRPPRLPRPRPRPMIWPRP the “shrunken log2 fold change” value was -0.00298. In the case of RRIRWRPPRLPRPRPRPQMMPRP, the “shrunken log2 fold change” value is reported as -0.0594. With RRIRLRPPRLPRPRPRPGSLPRP the “shrunken log2 fold change” value was -0.0743. In the case of RRIRQRPPRLPRPRPRPTEAPRP, the “shrunken log2 fold change” value is reported as -0.0735. RRIRPRPPRLPRPRPRPYLMPRP was tested, and the “shrunken log2 fold change” value was -0.58. For RRIRFRPPRLPRPRPRPPPAPRP, the “shrunken log2 fold change” value was 1.49. With RRIRYRPPRLPRPRPRPNLGPRP the “shrunken log2 fold change” value was -0.0146. With RRIRVRPPRLPRPRPRPPKPPRP the “shrunken log2 fold change” value was 0.107. With RRIRRRPPRLPRPRPRPFWLPRP the “shrunken log2 fold change” value was 0.231. In the case of RRIRERPPRLPRPRPRPWSTPRP, the “shrunken log2 fold change” value is reported as -0.237. RRIRWRPPRLPRPRPRPQYRPRP was tested, and the “shrunken log2 fold change” value was 0.00862. With RRIRPRPPRLPRPRPRPFMTPRP the “shrunken log2 fold change” value was -0.511. With RRIRIRPPRLPRPRPRPESVPRP the “shrunken log2 fold change” value was -0.00682. RRIRCRPPRLPRPRPRPCREPRP was tested, and the “shrunken log2 fold change” value was -0.291. In the case of RRIRPRPPRLPRPRPRPPPDPRP, the “shrunken log2 fold change” value is reported as 0.622. For RRIRRRPPRLPRPRPRPHYLPRP, the “shrunken log2 fold change” value was -0.156. RRIRGRPPRLPRPRPRPRHAPRP was tested, and the “shrunken log2 fold change” value was 1.05. For RRIRARPPRLPRPRPRPLQFPRP, the “shrunken log2 fold change” value was 0.0375. In the case of RRIRNRPPRLPRPRPRPRLPPRP, the “shrunken log2 fold change” value is reported as 0.245. RRIRIRPPRLPRPRPRPEMTPRP was tested, and the “shrunken log2 fold change” value was 0.104. With RRIRTRPPRLPRPRPRPHNRPRP the “shrunken log2 fold change” value was -0.0489. RRIRWRPPRLPRPRPRPELEPRP was tested, and the “shrunken log2 fold change” value was 1.35. With RRIRNRPPRLPRPRPRPMNCPRP the “shrunken log2 fold change” value was -0.57. With RRIRARPPRLPRPRPRPIPRPRP the “shrunken log2 fold change” value was 0.526. For RRIRDRPPRLPRPRPRPLCHPRP, the “shrunken log2 fold change” value was 0.0833. In the case of RRIRRRPPRLPRPRPRPDASPRP, the “shrunken log2 fold change” value is reported as 0.0354. RRIRMRPPRLPRPRPRPEFDPRP was tested, and the “shrunken log2 fold change” value was 2.44. RRIRGRPPRLPRPRPRPDQAPRP was tested, and the “shrunken log2 fold change” value was 0.925. RRIRLRPPRLPRPRPRPNMSPRP was tested, and the “shrunken log2 fold change” value was -0.129. RRIRFRPPRLPRPRPRPRFFPRP was tested, and the “shrunken log2 fold change” value was 0.0547. With RRIRKRPPRLPRPRPRPSQLPRP the “shrunken log2 fold change” value was 0.141. In the case of RRIRHRPPRLPRPRPRPWHEPRP, the “shrunken log2 fold change” value is reported as -0.0659. In the case of RRIRLRPPRLPRPRPRPFCYPRP, the “shrunken log2 fold change” value is reported as -0.465. In the case of RRIRIRPPRLPRPRPRPRDDPRP, the “shrunken log2 fold change” value is reported as 0.168. With RRIRHRPPRLPRPRPRPTKGPRP the “shrunken log2 fold change” value was -0.14. For RRIRARPPRLPRPRPRPLSWPRP, the “shrunken log2 fold change” value was 0.984. For RRIRQRPPRLPRPRPRPPLIPRP, the “shrunken log2 fold change” value was 0.0445. RRIRWRPPRLPRPRPRPGRKPRP was tested, and the “shrunken log2 fold change” value was -0.0532. In the case of RRIRYRPPRLPRPRPRPKACPRP, the “shrunken log2 fold change” value is reported as -0.00227. For RRIRKRPPRLPRPRPRPPIGPRP, the “shrunken log2 fold change” value was 0.407. In the case of RRIRMRPPRLPRPRPRPCLCPRP, the “shrunken log2 fold change” value is reported as -0.0635. In the case of RRIRFRPPRLPRPRPRPLDYPRP, the “shrunken log2 fold change” value is reported as -0.0121. RRIRKRPPRLPRPRPRPISHPRP was tested, and the “shrunken log2 fold change” value was 0.17. With RRIRDRPPRLPRPRPRPWGVPRP the “shrunken log2 fold change” value was 0.0789. RRIRCRPPRLPRPRPRPENFPRP was tested, and the “shrunken log2 fold change” value was -0.32. With RRIRMRPPRLPRPRPRPGPYPRP the “shrunken log2 fold change” value was -0.149. For RRIRFRPPRLPRPRPRPVGTPRP, the “shrunken log2 fold change” value was 0.00754. RRIRDRPPRLPRPRPRPHTCPRP was tested, and the “shrunken log2 fold change” value was -0.0522. RRIRNRPPRLPRPRPRPTVVPRP was tested, and the “shrunken log2 fold change” value was 0.229. In the case of RRIRWRPPRLPRPRPRPKYAPRP, the “shrunken log2 fold change” value is reported as -0.0417. In the case of RRIRTRPPRLPRPRPRPGIIPRP, the “shrunken log2 fold change” value is reported as 0.0136. For RRIRMRPPRLPRPRPRPKMDPRP, the “shrunken log2 fold change” value was 1.2. In the case of RRIRFRPPRLPRPRPRPYWEPRP, the “shrunken log2 fold change” value is reported as -0.391. For RRIRNRPPRLPRPRPRPYTAPRP, the “shrunken log2 fold change” value was -0.502. RRIRARPPRLPRPRPRPAVVPRP was tested, and the “shrunken log2 fold change” value was 0.16. With RRIRERPPRLPRPRPRPILTPRP the “shrunken log2 fold change” value was -0.337. With RRIRNRPPRLPRPRPRPWRYPRP the “shrunken log2 fold change” value was -0.0121.
